Experimental data taken from US6498233 (dated 1996).

Target: p185 erbB-2 on SK-BR-3 human breast carcinoma cells (human, UniProt P04626 23-1255)

B1: scFv(FRP5)-DETA-DGAL4 protein (scFv)
chain: DYKDDDDKLHHHHHHKLQVQLQQSGPELKKPGETVKISCKASGYPFTNYGMNWVKQAPGQGLKWMGWINTSTGESTFADDFKGRFDFSLETSANTAYLQINNLKSEDMATYFCARWEVYHGYVPYWGQGTTVTVSSGGGGSGGGGSGGGGSDIQLTQSHKFLSTSVGDRVSITCKASQDVYNAVAWYQQKPGQSPKLLIYSASSRYTGVPSRFTGSGSGPDFTFTISSVQAEDLAVYFCQQHFRTPFTFGSGTKLEIKALEGGSLAALTAHQACHLPLETFTRHRQPRGWEQLEQCGYPVQRLVALYLAARLSWNQVDQVIRNALASPGSGGDLGEAIREQPEQARLALTLAAAESERFVRQGTGNDEAGAANADEKLLSSIEQACDICRLKKLKCSKEKPKCAKCLKNNWECRYSPKTKRSPLTRAHLTEVESRLERLEQLFLLIFPREDLDMILKMDSLQDIKALLTGLFVQDNVNKDAVTDRLASVETDMPLTLRQHRISATSSSEESSNKGQRQLTVSSSDYKDEL
  EC50: 20 nM
